± gives the half width of the 95% confidence interval.

Consider 36 sequences from the supplement of paper PMC12764529.

Series [1] in a line: folding stability dG unfold from chymotrypsin proteolysis; higher = more stable. The method, boiled down: (§1)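 Designed mini-proteins (under 80 residues, no cysteine) in a PA-tagged cDNA display construct were digested with trypsin and chymotrypsin. Each protease was used at 11 concentrations (threefold dilutions) plus a no-protease condition, followed by sequencing. K50 was inferred by Bayesian fitting of sequencing counts, and unfolding free energy was derived against a sequence-predicted unfolded-state K50 and a shared folded-state K50, per protease or combined. Only designs with AlphaFold2 dimer inter-PAE above 15 were kept.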

The nature of series [2]: folding stability dG unfold from trypsin proteolysis; higher = more stable. The method, boiled down: as §1
Series [3] is described as follows: folding stability dG unfold (combined trypsin and chymotrypsin); higher = more stable. The method, boiled down: as §1

On to “SAGGSAGGSPWRRIPISSPEQILDWLEEMLPPGFNLTPEMAEQMVDYFLKNFEVDPNGYLWVRSAGGSAGGS [r12_983_TrROS]”, for which the “folding stability dG unfold” value in series [1] was found to be 1.82 ± 0.21 kcal/mol; in series [2] it was 2.11 ± 0.051 kcal/mol; in series [3], 1.89 ± 0.14 kcal/mol.
As to “SAGGSAGGSRIVIHWDPDGMFMIEIRDPGESRTFMFDGPEEAENFADKIEDKLGLPVEVTEIYSAGGSAGGS [r12_783_TrROS]”, the “folding stability dG unfold” value in series [1] stood at 0.681 ± 0.11 kcal/mol; in series [2], 0.69 ± 0.024 kcal/mol; in series [3], 0.747 ± 0.099 kcal/mol.
“SAGGSAGGSRIVRNPDGWYYVRIESPEKGQERYIWIPKGNAEEIADPFGIRNVSIYRPDEPIPSAGGSAGGS [r12_294_TrROS]”: the “folding stability dG unfold” value was 1.28 ± 0.34 kcal/mol in series [1], 0.427 ± 0.15 kcal/mol in series [2] and 0.937 ± 0.19 kcal/mol in series [3].
For the sequence “SAGGSAGGSRKIPIWIPPGMPPEQLEHFVRFIAGENGWKIKSVEIKDVDPANNWVKIDIEVKWSAGGSAGGS [r12_168_TrROS]”, the “folding stability dG unfold” value in series [1] came to 2.9 ± 0.093 kcal/mol; in series [2], 2.16 ± 0.094 kcal/mol; in series [3] it was 2.67 ± 0.11 kcal/mol.
The matching figures for “SAGGSAGGSSAEEVAASYPVTEVEYDPVTNTTTVTAEFPDSRIVLTYDPATGTVTTEVLPPLRSAGGSAGGS [r12_214_JUSTAS]”: 0.749 ± 0.035 kcal/mol, 0.508 ± 0.018 kcal/mol and 0.654 ± 0.17 kcal/mol.
With “SAGGSAGGSSDEPLVIPVTAVFVNPETGEVTVARAEVRLPPDGGLEVDVEVEVREVEPDAPLLSAGGSAGGS [r12_116_TrMRF]”, the “folding stability dG unfold” value was found to be 1.47 ± 0.036 kcal/mol in series [1], 0.964 ± 0.025 kcal/mol in series [2] and 1.2 ± 0.14 kcal/mol in series [3].
As to “SAGGSAGGSSEKAEELLERLRELLPPEEIRRVEVRDGKIVIEVSPEAARRLAEELGLDEIEIVSAGGSAGGS [r12_748_TrROS_Hall]”, the “folding stability dG unfold” value in series [1] came to 2.22 ± 0.071 kcal/mol; in series [2], 2.53 ± 0.09 kcal/mol; in series [3], 2.49 ± 0.074 kcal/mol.
With “SAGGSAGGSSELKVVELTTEPGKYLVVTLPDGTVVVLPPGAPLPLGDGEPATVEVVPEEELRSSAGGSAGGS [r12_39_JUSTAS]”, the “folding stability dG unfold” value in series [1] came out at 0.85 ± 0.022 kcal/mol; in series [2] it was 0.413 ± 0.041 kcal/mol; in series [3], 0.705 ± 0.046 kcal/mol.
Take “SAGGSAGGSSFEITVYHPDKGKPFKAKVDIEPELVDGDGKPVLVYKAKITIGDKPFEAVFVLNSAGGSAGGS [r20_39_TrMRF]”: the figures for the “folding stability dG unfold” value in series [1], in series [2] and in series [3] were 2.89 ± 0.043 kcal/mol, 2.14 ± 0.08 kcal/mol and 2.63 ± 0.14 kcal/mol, respectively.
Turning to “SAGGSAGGSSGPTLTIRYSILVSDSDGNWYALVFEARIYPNGDVEIRYRLYSYKDIPPGASPTSAGGSAGGS [r12_38_TrMRF]”, the “folding stability dG unfold” value in series [1] stood at 4.85 ± 0.093 kcal/mol; in series [2], 4.12 ± 0.16 kcal/mol; in series [3], 4.7 ± 0.067 kcal/mol.
In the same order, the values of “SAGGSAGGSSIEEEYAANPENVTVTLPSPGGTPASTITVGNAPVTVTPLPDGDSAVTLDPANKSAGGSAGGS [r12_805_JUSTAS]” are 1.69 ± 0.035 kcal/mol, 0.727 ± 0.045 kcal/mol and 1.4 ± 0.043 kcal/mol.
As for “SAGGSAGGSSKAEELAKKLGVKVKIIDKFTLPGNKKVILAKVKFPGKGYALVLYDGKTPVLLPSAGGSAGGS [r12_279_TrMRF]”, the “folding stability dG unfold” value in series [1] stood at 1.86 ± 0.099 kcal/mol; in series [2] it was 1.97 ± 0.07 kcal/mol; in series [3], 1.96 ± 0.087 kcal/mol.
In the same order, the values of “SAGGSAGGSSLEEIKAAAEEAVAAGHPVLTVTSGSGKVVTVEVGESPIESAGPLDGVTVTLTGSAGGSAGGS [r20_44_JUSTAS]” are 0.443 ± 0.038 kcal/mol, 1.02 ± 0.056 kcal/mol and 0.723 ± 0.073 kcal/mol.
With “SAGGSAGGSSLTVTYDPSTGTLTITVPEDQTSVKIKYGDKTYTVPLPPGQTFTVPANTFTLESSAGGSAGGS [r20_26_TrMRF]”, the “folding stability dG unfold” value in series [1] came to 1.54 ± 0.08 kcal/mol; in series [2], 0.745 ± 0.071 kcal/mol; in series [3] it was 1.29 ± 0.11 kcal/mol.
Take “SAGGSAGGSSMTLTIEPPEEGPPLLVEVDETEEIVTGDGTPVKVTTLKITIGEEEMTLTVTTLSAGGSAGGS [r20_39_JUSTAS]”: the “folding stability dG unfold” value in series [1] turned out to be 2.46 ± 0.057 kcal/mol; in series [2] it was 1.71 ± 0.098 kcal/mol; in series [3], 2.1 ± 0.15 kcal/mol.
On to “SAGGSAGGSSMTLTSEKTEKFTEGSKEFLKKTETWKLPGNSTLTKETIIDPSSDKYKEKISLLSAGGSAGGS [r12_1035_JUSTAS]”, for which the “folding stability dG unfold” value in series [1] was -0.0253 ± 0.24 kcal/mol; in series [2], -0.727 ± 0.24 kcal/mol; in series [3] it was -0.159 ± 0.18 kcal/mol.
The matching figures for “SAGGSAGGSSMTLTTLEVNPSVTIEPQPGSIVVKTPVTTLVKAGDTLVTLESESITVLPPDLLSAGGSAGGS [r12_1023_JUSTAS]”: 1.2 ± 0.036 kcal/mol, 0.486 ± 0.048 kcal/mol and 1.03 ± 0.062 kcal/mol.
With “SAGGSAGGSSMYTYPELGVKVTTTPLPTDSTLVTATFPDGSVYKFTVDPSGNLVTSTPIVVNSSAGGSAGGS [r12_56_JUSTAS]”, the figures for the “folding stability dG unfold” value in series [1], in series [2] and in series [3] were 1.01 ± 0.064 kcal/mol, 0.326 ± 0.018 kcal/mol and 0.784 ± 0.06 kcal/mol, respectively.
Consider “SAGGSAGGSSNGITLKKPGGIEIKLPKPPSVKPVTVTTTFVFTTPDGKLVFVPKTTTLPPSLLSAGGSAGGS [r12_1027_JUSTAS]”, for which the “folding stability dG unfold” value in series [1] was determined as 2.25 ± 0.2 kcal/mol; in series [2] it was 1.59 ± 0.15 kcal/mol; in series [3], 1.83 ± 0.29 kcal/mol.
In the same order, the values of “SAGGSAGGSSPDNKPVPPRFMIHVEIEPIKIPPEMREAAKDDPDNIDEIYVITIDVYFVGDDFSAGGSAGGS [r12_196_TrROS]” are 2.81 ± 0.07 kcal/mol, 2.22 ± 0.063 kcal/mol and 2.58 ± 0.074 kcal/mol.
The matching figures for “SAGGSAGGSSPLIEKLRKDPNVTKIEIDTVKNTTYIYTPNKIYIINSKGEIEKVEEVSPEILKSAGGSAGGS [r12_895_JUSTAS]”: 2.36 ± 0.072 kcal/mol, 0.743 ± 0.067 kcal/mol and 1.81 ± 0.17 kcal/mol.
Turning to “SAGGSAGGSSPLLEAALEIAKTLPPDSEVELPILNPETGTFVRVRVVYDEETGEFKVESVEFSSAGGSAGGS [r12_186_TrMRF]”, the “folding stability dG unfold” value was 1.44 ± 0.12 kcal/mol in series [1], 1.5 ± 0.018 kcal/mol in series [2] and 1.54 ± 0.1 kcal/mol in series [3].
“SAGGSAGGSSPVRTLTIPTENLTPEEILELVKNNPVDSVVLNADSEEEEKLKEELKKAGIKVLSAGGSAGGS [r12_610_JUSTAS]”: the “folding stability dG unfold” value in series [1] was 0.138 ± 0.15 kcal/mol; in series [2] it was -0.501 ± 0.071 kcal/mol; in series [3], -0.0698 ± 0.098 kcal/mol.
The matching figures for “SAGGSAGGSSSMTLTTDDGSTLDSVTRDPNSDTATVTYSGSGETVTATATTLPDGSVVVTVVTSAGGSAGGS [r12_839_JUSTAS]”: 0.784 ± 0.092 kcal/mol, 1.26 ± 0.054 kcal/mol and 1.08 ± 0.11 kcal/mol.
In the same order, the values of “SAGGSAGGSSSVVSTLEETPDSVVEKVETPDPIIVERVPLPDGTVEVRVFKPDGTPISISTLGSAGGSAGGS [r12_1061_JUSTAS]” are 0.0395 ± 0.18 kcal/mol, 0.99 ± 0.036 kcal/mol and 0.507 ± 0.12 kcal/mol.
Turning to “SAGGSAGGSSTLTLTVRVEVTVEVDGKTYTFTAELTLTVELPPLPEEDLKLYRTDDGELRLVRSAGGSAGGS [r12_1031_TrROS_Hall]”, the “folding stability dG unfold” value amounted to 2.91 ± 0.24 kcal/mol in series [1], 2.94 ± 0.21 kcal/mol in series [2] and 2.88 ± 0.47 kcal/mol in series [3].
For the sequence “SAGGSAGGSSVKAKLLSYSRDPTSDLVSVELLIEKSSETIPITLTVPPSEVQPGATITIEIRPSAGGSAGGS [r12_76_JUSTAS]”, the “folding stability dG unfold” value is 0.609 ± 0.11 kcal/mol in series [1], -0.616 ± 0.16 kcal/mol in series [2] and 0.289 ± 0.072 kcal/mol in series [3].
For “SAGGSAGGSSVTLTFTGGNSEVTVELDAGGEGGFLARVTVVTESDGKLETVEADFYLGSLPGLSAGGSAGGS [r12_769_TrMRF]”, the entries for the “folding stability dG unfold” value in series [1], in series [2] and in series [3] were 3.77 ± 0.065 kcal/mol, 2.75 ± 0.13 kcal/mol and 3.29 ± 0.13 kcal/mol, respectively.
In the same order, the values of “SAGGSAGGSTILDALEKGFEITDIEPNNDGPYMLTVRNPEEGYRVTIMIHPNGDIMIQVQPVPSAGGSAGGS [r12_166_TrROS]” are 2.19 ± 0.042 kcal/mol, 1.83 ± 0.075 kcal/mol and 2.06 ± 0.1 kcal/mol.
As to “SAGGSAGGSTITFFFDNPEQIEKLIEELMDKNNVEVEVEPHPDNGMPMVTFTNPNNGKEITIMSAGGSAGGS [r12_635_TrROS]”, the results for the “folding stability dG unfold” value in series [1], in series [2] and in series [3] were 0.497 ± 0.23 kcal/mol, 0.48 ± 0.057 kcal/mol and 0.54 ± 0.21 kcal/mol, respectively.
The matching figures for “SAGGSAGGSTIVIRLSKEELENMTAEELAEALAEEGAEVTVTVEYDEETDELVVTIEIHPEDLSAGGSAGGS [r12_716_TrROS_Hall]”: 2.01 ± 0.063 kcal/mol, 2.12 ± 0.12 kcal/mol and 2.11 ± 0.13 kcal/mol.
On to “SAGGSAGGSTLEEVRKIAEEAVKKGYPYVVISAPGGLKKVFKVEEDDIVEIPDSEGYTVELLSSAGGSAGGS [r20_44_TrMRF]”, for which the “folding stability dG unfold” value in series [1] is 0.85 ± 0.14 kcal/mol; in series [2], 0.202 ± 0.07 kcal/mol; in series [3], 0.52 ± 0.12 kcal/mol.
For the sequence “SAGGSAGGSTLRLRFRTPDGRLFEIEAEVRPDPDGRVYRLLRIREYDPETDEWLERPFRLPILSAGGSAGGS [r12_57_TrMRF]”, the “folding stability dG unfold” value in series [1] was 3.83 ± 0.019 kcal/mol; in series [2] it was 3.77 ± 0.12 kcal/mol; in series [3], 3.82 ± 0.056 kcal/mol.
In the same order, the values of “SAGGSAGGSTPTEFAKNLNVTEVKYDPVKKTVRVIHEFEDYLVLVEYDPSTGEVRVEVFSKDESAGGSAGGS [r12_214_TrMRF]” are 2.05 ± 0.12 kcal/mol, 1.4 ± 0.12 kcal/mol and 1.84 ± 0.24 kcal/mol.
In the same order, the values of “SAGGSAGGSTTLTVDLPFGPATVHITGLPDSFVAFIEFDNPPFRATATIKEISKNGIVIEDIDFSAGGSAGG [r6_982_TrMRF]” are 1.9 ± 0.13 kcal/mol, 2.2 ± 0.086 kcal/mol and 2.1 ± 0.22 kcal/mol.
Take “SAGGSAGGSVITLPNGVKLVTVKVSRPELDETETVTVPLEGMTLEEIKERLKKEGYKEVVFLESAGGSAGGS [r12_792_JUSTAS]”: the “folding stability dG unfold” value in series [1] was 1.28 ± 0.036 kcal/mol; in series [2], 1.19 ± 0.032 kcal/mol; in series [3], 1.26 ± 0.077 kcal/mol.
